Values quoted from earlier work in US11458170B2, “Pharmaceutical composition comprising erythrocytes encapsulating a PLP-dependent enzyme and, a non-phosphate PLP precursor” (ERYTECH PHARMA, priority 2014, dated 2022).

How the values were obtained:
[1] = not given; remark: listed apart in the source
[2] = in vivo

| Molecule | Plasma activity of the enzyme (24 h after IV injection, immunodeficient mice, determined in vitro without adding PLP) | Half-life in mice (mice) | Treated animals developing anti-rMETase antibodies (IgG, IgM) ([1]; macaques) | Death after anaphylactic shock ([1]; second IV injection 28 days after the first) | Anaphylactic shock after second injection ([1]; second IV injection 28 days after the first, six monkeys) | Plasma half-life of free PLP [2] |
| --- | --- | --- | --- | --- | --- | --- |
| rMETase: recombinant methioninase produced in Escherichia coli from the Pseudomonas putida gene (Sun et al.) | undetectable | 2 h | four out of six | death of one of the two animals | in two monkeys an anaphylactic shock | – |
| Cc1ncc(COP(=O)(O)O)c(C=O)c1O [PLP, pyridoxal phosphate] | – | – | – | – | – | about 15 minutes |
